The target in assay [1] is PucE-LH2 α-polypeptide (α-apoprotein encoded by the pucBAe gene pair) (Rhodopseudomonas palustris). The experiment in a line: cryo-EM structure; single-particle cryo-EM of native LH2 complexes purified from intracytoplasmic membranes of single-pucBA deletion strains, in 0.1% LDAO, 20 mM Tris-Cl pH 8.0; C1 maps with relaxed C9 symmetry; γ encloses six of the nine α/β-heterodimers.

The target of assay [2] is PucA-LH2 α-polypeptide (α-apoprotein encoded by the pucBAa gene pair) (Rhodopseudomonas palustris). The assay is described as above.
Assay [3] addresses PucD-LH2 α-polypeptide (α-apoprotein encoded by the pucBAd gene pair) (Rhodopseudomonas palustris). The description is as above.
The next assay has as its target T1, PucA-LH2 (Rhodopseudomonas palustris, UniProt P35101+P35106+Q6N9P5).
T1 construct: gene pucAA; native nonameric LH2 complex purified in LDAO from a Rps. palustris mutant with only pucBAa; α9β9γ1; alpha Met1 modelled as Cxm; last nine alpha residues untraced
In words: cryo-EM structure of the complex, […] Å. It counts as binding. The following applies: 9 per complex, between alpha and beta chains; noncovalent.

For assay [4], the target named is PucB-LH2 α-polypeptide (α-apoprotein encoded by the pucBAb gene pair) (Rhodopseudomonas palustris). In words: cryo-EM structure; single-particle cryo-EM of native LH2 complexes purified from intracytoplasmic membranes of single-pucBA deletion strains, in 0.1% LDAO, 20 mM Tris-Cl pH 8.0; C1 maps with relaxed C9 symmetry; γ encloses six of the nine α/β-heterodimers.

As usually defined, the stoichiometry N is a count of units in the complex or per binding partner.

T1 sequence (P35101 whole entry): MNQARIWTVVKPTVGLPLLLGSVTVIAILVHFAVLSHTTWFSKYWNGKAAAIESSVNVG
T1 sequence (P35106 2-47 limits assumed): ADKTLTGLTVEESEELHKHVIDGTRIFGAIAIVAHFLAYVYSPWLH
T1 sequence (Q6N9P5 1-97): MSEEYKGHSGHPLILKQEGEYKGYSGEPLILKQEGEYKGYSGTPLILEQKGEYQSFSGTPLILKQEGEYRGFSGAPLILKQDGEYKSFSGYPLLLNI

On to “PucE-LH2 α-polypeptide (α-apoprotein encoded by the pucBAe gene pair) (natural protein)”, for which the stoichiometry N in assay [1] turned out to be 9. “PucA-LH2 α-polypeptide (α-apoprotein encoded by the pucBAa gene pair) (natural protein)” displayed a stoichiometry N in assay [2] of 9. With “PucD-LH2 α-polypeptide (α-apoprotein encoded by the pucBAd gene pair) (natural protein)”, the stoichiometry N in assay [3] was found to be 9. Regarding `CC(C)=CCC/C(C)=C/C=C/C(C)=C/C=C/C(C)=C/C=C/C=C(C)/C=C/C=C(C)/C=C/C=C(\C)CCCC(C)(C)O` [rhodopin], the “cryo-EM structure of the complex, 2.7 Å” value at PucA-LH2 was “A carotenoid, rhodopin, is sandwiched between α- and β-polypeptides”. For the molecule “PucB-LH2 α-polypeptide (α-apoprotein encoded by the pucBAb gene pair) (natural protein)”, in assay [4], the stoichiometry N came out at 9.

These data come from article PMC9618040, “Cryo-EM structures of light-harvesting 2 complexes from Rhodopseudomonas palustris reveal the molecular origin of absorption tuning” (Proceedings of the National Academy of Sciences of the …, 2022).
